Results from patent US20250289893A1 (OXFORD UNIVERSITY INNOVATION, published 2025).

T1: Cynomolgus monkey CD1a protein (Cynomolgus monkey)
T1 chain: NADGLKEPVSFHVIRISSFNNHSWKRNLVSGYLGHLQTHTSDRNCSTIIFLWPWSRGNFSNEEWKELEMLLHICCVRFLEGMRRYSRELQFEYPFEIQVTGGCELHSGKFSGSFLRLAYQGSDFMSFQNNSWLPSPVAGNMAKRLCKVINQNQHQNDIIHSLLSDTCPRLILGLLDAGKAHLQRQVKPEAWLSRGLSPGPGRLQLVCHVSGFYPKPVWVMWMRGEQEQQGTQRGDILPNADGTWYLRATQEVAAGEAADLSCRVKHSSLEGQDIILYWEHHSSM


How the values were obtained:
[1] = target: T2, chimeric CD1a pool B protein [human CD1a lipid binding domain, mouse CD1d Ig domain] (human; mouse, UniProt P06126 18-201; P11609 205-297, limits assumed); assay: ELISA, 3.16 µg/ml antibody
Protocol: (§1) CD1a-specific antibodies were identified by ELISA. […] 20 μl/well of peroxidase-conjugated goat anti-species IgG Fc-specific F(ab′)2 fragment (Jackson ImmunoResearch), diluted 1:5000 in block buffer was added and incubated at room temperature for 1 hour, followed by washing with wash buffer.
(§2) The antibodies were titrated through a dilution series and compared to a control rabbit IgG antibody. […] Data shown for purified antibodies.

[2] = target: T3, human CD1c expressed on HEK-293 cells (human, UniProt P29017 18-333; P61769 21-119); assay: flow cytometry, HEK-293 cells, 0.1 µg/ml antibody
T3 construct: also called HEK - CD1c

[3] = target: T4, human CD1b expressed on HEK-293 cells (human, UniProt P29016 18-333; P61769 21-119); assay: flow cytometry, HEK-293 cells, 0.1 µg/ml antibody
T4 construct: also called HEK - CD1b

[4] = target: T5, human CD1a expressed on cells (human, UniProt P06126 17-327; P61769 21-119); assay: flow cytometry, HEK-293 cells, 0.316 µg/ml antibody
T5 construct: also called HEK - CD1a; C1R - CD1a
Protocol: (§3) Binding to proteins expressed on HEK, C1R and MOLT4 cell lines was assessed. […] The C1R-CD1a, C1R-empty vector and MOLT4 cell lines were washed in 1×PBS on the day required. All cell lines were counted and resuspended in 1×PBS and then stained for 30 minutes at 37° C. using the DiI or DiO cellular stains (Invitrogen). Cells were washed with flow cytometry buffer (1% bovine serum albumin, 2 mM EDTA and 0.1% sodium azide in PBS) before mixing 2 DiI-stained and DiO-stained populations together. The cells (20 μl/well) were then added to dilutions of antibody sample (B cell culture supernatant, TAP supernatant, clone supernatant, purified antibody solution) (20 μl/well) and incubated for 1 hour at 4° C. in a flow cytometry assay plate, before being washed with flow cytometry buffer. 10 μl/well of Alexafluor647-conjugated goat anti-species IgG Fc-specific F(ab′)2 fragment (Jackson ImmunoResearch), diluted 1:2500 in flow cytometry buffer, was added and incubated at 4° C. for 30 minutes, followed by washing with wash buffer. The fluorescence intensity was then measured on an iQue screener PLUS.
(§4) HEK-293 cells were transiently transfected with human CD1a, CD1b, CD1c or CD1d and co-transfected with human β2M.

[5] = target: T6, human CD1d expressed on HEK-293 cells (human, UniProt P15813 20-335; P61769 21-119); assay: as above
T6 construct: also called HEK - CD1d
Protocol: as §3, §4

[6] = target: T3, human CD1c expressed on HEK-293 cells; assay: as above
Protocol: as §3, §4

[7] = target: T4, human CD1b expressed on HEK-293 cells; assay: as above
Protocol: as §3, §4

[8] = target: T2, chimeric CD1a pool B protein [human …; assay: ELISA, 100 µg/ml antibody
Protocol: as §1, §2

[9] = target: T5, human CD1a expressed on cells; assay: flow cytometry, MOLT4 cells, 0.1 µg/ml antibody
Protocol: (§5) CD1a-specific antibodies were identified by flow cytometry. Binding to proteins expressed on HEK, C1R and MOLT4 cell lines was assessed. […] The C1R-CD1a, C1R-empty vector and MOLT4 cell lines were washed in 1×PBS on the day required. All cell lines were counted and resuspended in 1×PBS and then stained for 30 minutes at 37° C. using the DiI or DiO cellular stains (Invitrogen). Cells were washed with flow cytometry buffer (1% bovine serum albumin, 2 mM EDTA and 0.1% sodium azide in PBS) before mixing 2 DiI-stained and DiO-stained populations together. The cells (20 μl/well) were then added to dilutions of antibody sample (B cell culture supernatant, TAP supernatant, clone supernatant, purified antibody solution) (20 μl/well) and incubated for 1 hour at 4° C. in a flow cytometry assay plate, before being washed with flow cytometry buffer. 10 μl/well of Alexafluor647-conjugated goat anti-species IgG Fc-specific F(ab′)2 fragment (Jackson ImmunoResearch), diluted 1:2500 in flow cytometry buffer, was added and incubated at 4° C. for 30 minutes, followed by washing with wash buffer. The fluorescence intensity was then measured on an iQue screener PLUS.
(§6) Binding was quantified as fold change in fluorescence intensity geomean over background assessed by flow cytometry.

[10] = target: T1, Cynomolgus monkey CD1a protein; assay: ELISA, 0.1 µg/ml antibody
[11] = target: Cynomolgus monkey CD1a expressed on HEK-293 cells (Cynomolgus monkey, UniProt A0A2K5VQ68 17-326); assay: flow cytometry, HEK-293 cells, 10 µg/ml antibody
Protocol: as §3, §6

[12] = target: T5, human CD1a expressed on cells; assay: flow cytometry, C1R cells, 0.1 µg/ml antibody
Protocol: as §3, §6

[13] = target: T5, human CD1a expressed on cells; assay: flow cytometry, C1R cells, 0.0316 µg/ml antibody
Protocol: as §3, §6

[14] = target: T5, human CD1a expressed on cells; assay: flow cytometry, MOLT4 cells, 3.16 µg/ml antibody
Protocol: as §5, §6

[15] = target: T5, human CD1a expressed on cells; assay: flow cytometry, MOLT4 cells, 1 µg/ml antibody
Protocol: as §5, §6

[16] = target: T5, human CD1a expressed on cells; assay: flow cytometry, MOLT4 cells, 0.0316 µg/ml antibody
Protocol: as §5, §6

[17] = target: T7, human CD1a protein (pool B) (human, UniProt P06126 18-295, limits assumed); assay: ELISA, 100 µg/ml antibody
T7 construct: Recombinant protein of the ELISA (coated) and the Biacore T200 titration; whole entry named; also called human CD1a pool B; full length CD1a
Protocol: as §1
(§7) The antibodies were titrated through a dilution series and compared to a control rabbit IgG antibody.

[18] = target: Chinese variant CD1a protein (human) (UniProt P06126); assay: ELISA, 10 µg/ml antibody
[19] = target: T5, human CD1a expressed on cells; assay: flow cytometry, MOLT4 cells, 31.6 µg/ml antibody
Protocol: as §5, §6

[20] = target: T7, human CD1a protein (pool B); assay: SPR (Biacore T200), antibody captured, human CD1a titrated, 1:1 binding model
Protocol: The affinity of the purified antibodies to human CD1a was assessed using a Biacore T200 instrument (GE Healthcare) by capturing the antibody to an immobilized anti-species IgG F(ab′)2 followed by titration of human CD1a. Affinipure Goat anti-species IgG-F(ab′)2 fragment specific (Jackson ImmunoResearch) was immobilized on a CM5 Sensor Chip (GE Healthcare) via amine coupling chemistry to a capture level of ˜5000 response units (RUs). HBS-EP+ buffer (10 mM HEPES pH 7.4, 0.15 M NaCl, 3 mM EDTA, 0.05% Surfactant P20, GE Healthcare) was used as the running buffer with a flow rate of 10 μL/min. A 10 μL injection of test antibody at 0.5 μg/mL was used for capture by the immobilized Goat Anti-species Fab.
The surface was regenerated between cycles by injection of 2×10 μL of 40 mM HCl, interspersed by a 10 μL injection of 5 mM NaOH at flowrate of 10 μL/min. Background subtraction binding curves were analyzed using the Biacore T200 evaluation software following standard procedures. Kinetic parameters were determined from the fitting algorithm. This assay was performed at the clone supernatant and purified antibody stage.
Affinity was required to be <100 nM to be considered for progression.

[21] = target: T5, human CD1a expressed on cells; assay: flow cytometry, HEK-293 cells, 31.6 µg/ml antibody
Protocol: as §3, §4

[22] = target: T6, human CD1d expressed on HEK-293 cells; assay: flow cytometry, HEK-293 cells, 31.6 µg/ml antibody
Protocol: as §3, §4

[23] = target: T3, human CD1c expressed on HEK-293 cells; assay: flow cytometry, HEK-293 cells, 31.6 µg/ml antibody
Protocol: as §3, §4

[24] = target: T4, human CD1b expressed on HEK-293 cells; assay: flow cytometry, HEK-293 cells, 31.6 µg/ml antibody
Protocol: as §3, §4

[25] = target: T7, human CD1a protein (pool B); assay: ELISA, 1 µg/ml antibody
Protocol: as §1, §7

Chain of Chinese variant CD1a protein (human) (P06126 18-295, change not shown): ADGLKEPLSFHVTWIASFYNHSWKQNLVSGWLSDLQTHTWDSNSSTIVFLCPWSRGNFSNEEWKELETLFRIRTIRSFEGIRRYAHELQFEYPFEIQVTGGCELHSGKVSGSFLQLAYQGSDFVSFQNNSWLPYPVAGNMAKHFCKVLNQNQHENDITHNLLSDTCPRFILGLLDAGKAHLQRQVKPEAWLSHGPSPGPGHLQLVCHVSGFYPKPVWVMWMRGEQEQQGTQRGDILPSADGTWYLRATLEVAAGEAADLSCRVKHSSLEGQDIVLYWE
T7 sequence (P06126 18-295 limits assumed): as the sequence (P06126 18-295, change not shown) above
Chain of Cynomolgus monkey CD1a expressed on HEK-293 cells (A0A2K5VQ68 entry or part of it): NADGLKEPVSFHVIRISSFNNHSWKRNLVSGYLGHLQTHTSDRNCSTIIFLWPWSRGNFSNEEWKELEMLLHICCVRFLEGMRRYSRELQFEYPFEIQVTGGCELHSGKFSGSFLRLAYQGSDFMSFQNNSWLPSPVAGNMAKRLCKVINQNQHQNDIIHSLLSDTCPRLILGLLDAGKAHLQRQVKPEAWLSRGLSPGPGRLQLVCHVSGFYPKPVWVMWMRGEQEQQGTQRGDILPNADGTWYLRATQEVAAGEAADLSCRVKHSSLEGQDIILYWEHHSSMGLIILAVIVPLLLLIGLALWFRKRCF
T2 sequence (P06126 other isoform, or with tags, fused parts or gaps mutant limits assumed): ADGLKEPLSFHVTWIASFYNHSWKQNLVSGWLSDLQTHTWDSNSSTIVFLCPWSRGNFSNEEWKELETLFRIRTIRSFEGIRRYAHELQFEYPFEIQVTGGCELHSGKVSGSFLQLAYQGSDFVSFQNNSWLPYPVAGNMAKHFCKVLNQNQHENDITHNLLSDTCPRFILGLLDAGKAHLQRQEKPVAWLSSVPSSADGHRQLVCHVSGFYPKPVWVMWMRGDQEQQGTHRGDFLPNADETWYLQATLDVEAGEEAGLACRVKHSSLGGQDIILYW

| Binder | Optical Density (OD) [1] | Fluorescence Intensity Geomean (normalized to background) [2] | Fluorescence Intensity Geomean (normalized to background) [3] | Fluorescence Intensity Geomean (normalized to background) [4] | Fluorescence Intensity Geomean (normalized to background) [5] | Fluorescence Intensity Geomean (normalized to background) [6] | Fluorescence Intensity Geomean (normalized to background) [7] | Optical Density (OD) [8] | Fluorescence Intensity Geomean (normalized to background) [9] | Optical Density (OD) [10] | Fluorescence Intensity Geomean (normalized to background) [11] | Fluorescence Intensity Geomean (normalized to background) [12] | Fluorescence Intensity Geomean (normalized to background) [13] | Fluorescence Intensity Geomean (normalized to background) [14] | Fluorescence Intensity Geomean (normalized to background) [15] | Fluorescence Intensity Geomean (normalized to background) [16] | Optical Density (OD) [17] | Optical Density (OD) [18] | Fluorescence Intensity Geomean (normalized to background) [19] | Kd [20] | other results |
| --- | --- | --- | --- | --- | --- | --- | --- | --- | --- | --- | --- | --- | --- | --- | --- | --- | --- | --- | --- | --- | --- |
| 110 (VR12112) (antibody, V domains shown, also called OX110; antibody 110) VH: QSVEESGGRLVTPGTPLTLTCTVSGFSLSSYAMIWVRQAPGKGLEWIGIINSSDNTHYATWAKGRFTISKTSTTVDLKITSPTTEDTATYFCARDPYDYGYGWYFDLWGPGTLVTVSS VL: AQVLTQTPSPVSAAVGGTVTINCQASQSVFNNKNLAWYQQKPGQPPKLLIYKASTLASGVSSRFKGSGSGTQFALTISGVQCDDAATYYCQGEFSCSSTDCVTFGGGTEVVVK | 1.53 OD | 1 fold over background | 1 fold over background | 38.3 fold over background | 1 fold over background | 0.9 fold over background | 1 fold over background | 1.4 OD | 16.8 fold over background | 0.53 OD | 13.6 fold over background | 25.8 fold over background | 17.1 fold over background | 22.6 fold over background | 33 fold over background | 1.6 fold over background | 1.23 OD | 1.75 OD | 7.5 fold over background | 1.97 nM | Fluorescence Intensity Geomean (normalized to background) [21]: 10.9 fold over background; Fluorescence Intensity Geomean (normalized to background) [22]: 1.1 fold over background; Fluorescence Intensity Geomean (normalized to background) [23]: 1 fold over background; Fluorescence Intensity Geomean (normalized to background) [24]: 1.1 fold over background |
| 77A (VR11851) (antibody, V domains shown, also called OX77a; antibody 77a) VH: QSVEESGGRLVTPGTPLTLTCTVSGFSLSSYAMSWVRQAPGKGLEWIGIISSSGTTYYASWAKGRFTISKTSTTVDLKITSPTTEDTATYFCARVDYYSSGWGGLWGPGTLVTVSS VL: AVEMTQTPASMSAAVGGTVTIKCQASEDIYSNLAWYQQKPGQPPKLLIYGASTLASGVPSRFKGSGSGTEYTLTISGVQCDDAATYYCQCTYDTSSYGNTFGGGTEMVVE | 1.28 OD | 0.9 fold over background | 1 fold over background | 58.6 fold over background | 1 fold over background | 1 fold over background | 1.1 fold over background | 1.27 OD | 12.4 fold over background | 0.24 OD | 1.4 fold over background | 16.4 fold over background | 17 fold over background | 7.4 fold over background | 13.5 fold over background | 8.7 fold over background | 1.39 OD | 0.99 OD | 2.2 fold over background | 0.24 nM | Optical Density (OD) [25]: 1.34 OD; koff [20]: 0.000113 s⁻¹; kon [20]: 469000 M⁻¹ s⁻¹; Fluorescence Intensity Geomean (normalized to background) [21]: 8.2 fold over background; Fluorescence Intensity Geomean (normalized to background) [22]: 1 fold over background; Fluorescence Intensity Geomean (normalized to background) [23]: 0.9 fold over background; Fluorescence Intensity Geomean (normalized to background) [24]: 1 fold over background |
| 111 (VR12113) (antibody, V domains shown, also called OX111) VH: QSVEESGGRLVTPGTPLTLTCTASGFSLSTYAMSWVRQAPGKGLEWIGIISSSGSTYYASWAKGRFTISKTSTTVDLKITSPTTEDTATYFCARETWYWLDLWGQGTLVTVSS VL: AVEMTQTPASVSAAVGGTVTINCQASEDIYSNLAWYQQKPGQPPKLLIYGASTLASGVPSRFKGSGSGTEYTLTISGVQCDDAATYYCQCAYDSSSYGTPFGGGTEVVVK | 1.41 OD | 1 fold over background | 1 fold over background | 30.8 fold over background | 0.9 fold over background | 1 fold over background | 1 fold over background | 1.27 OD | 20.6 fold over background | 0.66 OD | 16.3 fold over background | 25.4 fold over background | 26 fold over background | 18.9 fold over background | 31.2 fold over background | 12.4 fold over background | 1.12 OD | 1.41 OD | 5.4 fold over background | ≤ 0.0312 nM | Optical Density (OD) [25]: 1.14 OD; koff [20]: < 1e-05 s⁻¹; kon [20]: 321000 M⁻¹ s⁻¹; Fluorescence Intensity Geomean (normalized to background) [21]: 6.3 fold over background; Fluorescence Intensity Geomean (normalized to background) [22]: 1 fold over background; Fluorescence Intensity Geomean (normalized to background) [23]: 1 fold over background; Fluorescence Intensity Geomean (normalized to background) [24]: 1 fold over background |
